In article doi:10.1101/2021.05.23.445325 (bioRxiv, 2021):
No end group written: not given here.

Experiments:
6His-NXF1 1-198 = molecular target: T1, 6His-NXF1 1-198 (UniProt Q9UBU9 1-198); test: ITC
T1 sequence (looked up): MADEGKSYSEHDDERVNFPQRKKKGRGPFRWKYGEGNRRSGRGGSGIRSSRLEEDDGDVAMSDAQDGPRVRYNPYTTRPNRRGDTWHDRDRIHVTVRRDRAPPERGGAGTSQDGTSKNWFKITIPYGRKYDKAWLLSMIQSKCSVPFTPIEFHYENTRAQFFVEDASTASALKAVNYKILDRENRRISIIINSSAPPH

GST-NXF1:p15 complex = molecular target: T2, GST-NXF1:p15 complex (UniProt Q9UBU9 1-619; Q9UKK6 1-140); test: pull-down
T2 sequence (looked up) 1: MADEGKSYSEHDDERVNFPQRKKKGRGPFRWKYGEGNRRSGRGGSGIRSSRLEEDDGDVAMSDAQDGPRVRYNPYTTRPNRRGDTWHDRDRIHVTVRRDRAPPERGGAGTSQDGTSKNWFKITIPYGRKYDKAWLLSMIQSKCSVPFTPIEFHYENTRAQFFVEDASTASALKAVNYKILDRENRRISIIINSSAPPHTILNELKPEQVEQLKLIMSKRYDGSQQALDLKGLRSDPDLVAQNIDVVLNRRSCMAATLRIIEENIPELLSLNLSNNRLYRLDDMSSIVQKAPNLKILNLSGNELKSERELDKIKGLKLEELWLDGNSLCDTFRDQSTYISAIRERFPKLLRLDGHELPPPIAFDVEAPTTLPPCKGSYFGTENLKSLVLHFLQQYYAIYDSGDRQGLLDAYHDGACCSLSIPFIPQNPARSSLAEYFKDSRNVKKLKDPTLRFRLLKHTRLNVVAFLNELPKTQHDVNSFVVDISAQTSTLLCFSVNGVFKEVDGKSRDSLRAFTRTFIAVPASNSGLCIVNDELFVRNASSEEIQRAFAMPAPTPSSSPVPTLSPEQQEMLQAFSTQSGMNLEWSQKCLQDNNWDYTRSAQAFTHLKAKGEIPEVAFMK
T2 sequence (looked up) 2: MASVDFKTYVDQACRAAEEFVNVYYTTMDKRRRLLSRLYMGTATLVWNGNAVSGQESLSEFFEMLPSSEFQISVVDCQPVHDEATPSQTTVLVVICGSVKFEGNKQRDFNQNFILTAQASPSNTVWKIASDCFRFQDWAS

Binder: PRSGRGTGRGGGGGGGGGAPRGRYGPPSRRSEYGRKKRRQRRR (peptide, UniProt Q07955 89-120, looked up) [SRSF1 WT-CPP (SRSF1 aa89-120, V5 tag, TAT protein transduction domain)]
- fold increase of affinity against the wild-type SRSF1 peptide (6His-NXF1 1-198): 5 fold

B1: SRSF1 (amino-acids 11-196), 6His-tagged (domain or fragment, UniProt Q07955 11-196, looked up)
chain: AGNNDCRIYVGNLPPDIRTKDIEDVFYKYGAIRDIDLKNRRGGPPFAFVEFEDPRDAEDAVYGRDGYDYDGYRLRVEFPRSGRGTGRGGGGGGGGGAPRGRYGPPSRRSENRVVVSGLPPSGSWQDLKDHMREAGDVCYADVYRDGTGVVEFVRKEDMTYAVRKLDNTKFRSHEGETAYIRVKVDG
- binding result (GST-NXF1:p15 complex): binds

Binder: PASGAGTGRGGGGGGGGGAPRGRYGPPSAASE (peptide, UniProt Q07955 89-120, looked up, also: FAM label, position not given here) [SRSF1 aa 89-120 m4-mutant peptide]
- fold reduction of affinity against SRSF1 WT-CPP (6His-NXF1 1-198): ~10 fold

Binder: PRSGRGTGRGGGGGGGGGAPRGRYGPPSRRSE (peptide, UniProt Q07955 89-120, looked up, also: FAM label, position not given here) [SRSF1 aa 89-120 wild-type peptide]
- binding result (6His-NXF1 1-198): binds
